T1: Recombinant human ADAM8 (rHuADAM8) ectodomain protein (aa 17-497), ACRO Biosystems AD8-H5223 (human, UniProt P78325 17-497)
T1 construct: Bought protein made in HEK293 cells; The protein clips off its own prodomain (aa 17-191); also called rhADAM8; immunogen
T1 sequence: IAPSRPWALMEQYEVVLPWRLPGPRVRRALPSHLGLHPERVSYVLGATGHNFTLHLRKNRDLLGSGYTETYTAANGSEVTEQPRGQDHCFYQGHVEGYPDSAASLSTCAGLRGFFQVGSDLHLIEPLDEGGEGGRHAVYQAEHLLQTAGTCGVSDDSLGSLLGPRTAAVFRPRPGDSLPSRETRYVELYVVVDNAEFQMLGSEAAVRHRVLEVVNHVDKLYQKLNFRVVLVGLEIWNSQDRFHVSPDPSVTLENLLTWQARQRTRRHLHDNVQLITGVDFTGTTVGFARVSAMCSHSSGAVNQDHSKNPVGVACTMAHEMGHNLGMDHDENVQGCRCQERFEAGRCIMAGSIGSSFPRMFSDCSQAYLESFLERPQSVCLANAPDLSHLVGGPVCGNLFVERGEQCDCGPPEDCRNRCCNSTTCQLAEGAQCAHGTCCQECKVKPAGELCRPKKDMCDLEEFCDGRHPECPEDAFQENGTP

T2: Recombinant human ADAM12 (Acro Biosystems, AD2-H5228) (human, UniProt O43184 208-708)
T2 sequence (looked up): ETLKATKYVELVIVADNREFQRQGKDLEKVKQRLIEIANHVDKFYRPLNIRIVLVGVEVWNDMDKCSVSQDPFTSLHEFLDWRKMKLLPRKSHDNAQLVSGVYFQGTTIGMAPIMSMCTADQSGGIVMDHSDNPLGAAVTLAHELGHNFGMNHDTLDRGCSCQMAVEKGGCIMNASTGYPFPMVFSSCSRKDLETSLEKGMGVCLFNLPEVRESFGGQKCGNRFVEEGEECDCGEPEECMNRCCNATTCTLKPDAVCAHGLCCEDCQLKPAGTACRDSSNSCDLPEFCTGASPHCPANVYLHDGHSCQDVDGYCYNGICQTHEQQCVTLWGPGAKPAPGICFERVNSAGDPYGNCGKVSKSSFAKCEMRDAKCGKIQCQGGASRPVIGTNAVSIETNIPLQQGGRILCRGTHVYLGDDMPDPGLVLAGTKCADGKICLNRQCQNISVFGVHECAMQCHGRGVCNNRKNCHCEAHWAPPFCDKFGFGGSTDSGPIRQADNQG

B1: ADP2 (antibody, V domains shown)
VH: EVKLVESGGGLVQPGGSLSLSCAASGFSFPDYYMSWVRQPPGKALEWLGFIRDSANGYTTEYIASVKGRFTFSRDNSQSILYLQMNALRAEDSATYYCARYSRYYGMDYWGQGTSVTVSS
VL: SIVMTQTPKILLVSAGDRVTITCKASQTVNYDVAWYQQKPGQSPKPVIYFASNRYTGVPDRFTGSGFGTDFTFTISTVQAEDLAVYFCQQDYSAPWTFGGGTKLEIK
notes: also called mADP2; mouse ADP2
B2: ADP3 (antibody, IgG1, V domains shown)
VH: EVKLEESGGGLVQPGGSMKLSCAASGFTFSDAWMDWVRQSPEKGLEWVAEIRGKVNNLATYYVESVKGRFTISRDDSKSSVYLQMNSLRAEDTGIYYCLGRYDATYAMDYWGQGTSVTVSS
VL: DVVMTQTPLSLPVSLGDQASISCRSSQSLVHSDGNTYLHWYLQKPGQSPKLLIYKLSNRFSGVPDRFSGSGSGTDFTLKISRVEAEDLGVYFCSQSTHVPWTFGGGTKLEIK
B3: ADP13 (antibody, IgG1, V domains shown)
VH: EVQLQQSGPEMVKPGTSVKISCKASGYTFTDYYINWVKQSHGKSLEWIGDISPNIGGATYNPKFKGKAILTVDKSARTAYMELRSLTSEDSAVYCCTRGGSSYPYFYAMDYWGQGTSVTVSS
VL: DIVMSQSPSSLAVSVGEKVTMSCKSSQSLLYSSNQKKYLAWYQQKPGQSPKLLIYWASTRESGVPDRFTGSGSGTDFTLTISSVKAEDLAVYYCQQFYSYPYTFGGGTKLEINR
notes: also called mADP13; mouse ADP13

Assays:
[1] = biological target: T1, Recombinant human ADAM8 (rHuADAM8) …; test: adhesion of α9β1 integrin CHO cells to coated rHuADAM8, antibody 20 µg/ml, vs isotype control IgG; mean ± S.D., n=3
Description: To mimic this process and evaluate both the presence of an active DI domain on rHuADAM8 and the ability of ADPs to inhibit this activity in vitro, adhesion of Chinese Hamster Ovary (CHO) cells expressing α9β1 integrin vs the negative control αvβ3 integrin was used (Rao et al., J Bone Miner Res, 21(10): 1657-1665, 2006). CHO cells were maintained in DMEM high glucose (Invitrogen) supplemented with 10% FBS, 1% penicillin/streptomycin (Hyclone), L-glutamine (Gibco), non-essential amino acids (Gibco) and 100 μg/ml G418 (Teknova). Adhesion of CHO cells expressing α9β1 integrin or αvβ3 integrin to plates coated with rHuADAM8 (Acro Biosystems, AD8-H5223) was assessed as follows. Briefly, 96-well plates were coated overnight with 1.5 μg of rHuADAM8 per well, blocked with 1% BSA and washed with PBS.
To assess the ability of ADPs to inhibit DI activity, 96-well plates coated with rHuADAM8 as above were pre-treated in duplicate for 2 hours with either PBS, 20 μg/ml of dialyzed or protein A purified ADP, MAB1031 or control isotype-matched IgGs. Unattached cells were washed off and attached cells counted as above.

[2] = biological target: T1, Recombinant human ADAM8 (rHuADAM8) …; test: ELISA, coated recombinant ADAM8
[3] = biological target: T2, Recombinant human ADAM12 (Acro …); test: ELISA, coated recombinant ADAM12

Binder | % inhibition of α9β1 integrin binding to ADAM8 [1] | OD 450nm [2] | OD 450nm [3] | binding result [3]
B1 | 72 % inhibition | 2.76 OD450nm | 0.14 OD450nm | no binding (tested: 1 µg/ml)
B2 | 69.3 % inhibition | 2.31 OD450nm | 0.16 OD450nm | –
B3 | 78.5 % inhibition | 2.64 OD450nm | 0.12 OD450nm | no binding (tested: 1 µg/ml)

From patent US20220227882A1 (TRUSTEES OF TUFTS COLLEGE, published 2022)
